According to patent publication US20220096548A1:

Assays:
human IL-6 (human) = human IL-6 (human) (UniProt P05231); assay: cell-based or functional assay
[1] = biological target: IL-6R expressed on HEK-Blue IL-6 reporter cells (UniProt P08887); assay: cell-based or functional assay
Sequence of UniProt P08887 (P08887 20-468 limits assumed): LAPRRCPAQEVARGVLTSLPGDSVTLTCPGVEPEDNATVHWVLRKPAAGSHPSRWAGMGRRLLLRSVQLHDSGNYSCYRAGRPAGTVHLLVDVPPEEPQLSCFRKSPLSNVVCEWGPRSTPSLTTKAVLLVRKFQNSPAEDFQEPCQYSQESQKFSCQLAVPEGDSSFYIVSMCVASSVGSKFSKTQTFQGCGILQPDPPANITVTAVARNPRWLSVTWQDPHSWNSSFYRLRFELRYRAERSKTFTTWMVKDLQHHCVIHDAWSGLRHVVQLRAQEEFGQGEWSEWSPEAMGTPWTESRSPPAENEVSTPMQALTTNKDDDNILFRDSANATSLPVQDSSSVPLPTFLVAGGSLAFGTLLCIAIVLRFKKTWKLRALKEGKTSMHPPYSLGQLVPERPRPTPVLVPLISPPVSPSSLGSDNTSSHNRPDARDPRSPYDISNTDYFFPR

Sequence of UniProt P05231 (P05231 30-212 limits assumed): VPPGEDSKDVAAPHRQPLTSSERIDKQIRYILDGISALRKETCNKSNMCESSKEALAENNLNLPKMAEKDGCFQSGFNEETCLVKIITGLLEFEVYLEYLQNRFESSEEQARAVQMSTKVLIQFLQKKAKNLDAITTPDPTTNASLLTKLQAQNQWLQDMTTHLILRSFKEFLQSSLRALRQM

inhibition of IL-6 signaling (SEAP production by HEK-Blue IL-6 reporter cells, 2 ng/ml human IL-6) (human IL-6 (human)) | inhibition of IL-6 signaling (SEAP production by HEK-Blue IL-6 reporter cells, 2 ng/ml human IL-6) [1] | Binder
< 60% | – | scFv antibody derived from reference Antibody 3 (binding to IL-6), fused with an Fc fragment of human IgG1 (Fc fusion, not shown: a dimerising Fc or GST) scFv: QIVLIQSPAIMSASPGEKVTMTCSASSSVSYMYWYQQKPGSSPRLLIYDTSNLASGVPVRFSGSGSGTSYSLTISRMEAEDAATYYCQQWSGYPYTFGGGTKLEIKGGGGSGGGGSGGGGSEVQLVESGGKLLKPGGSLKLSCAASGFTFSSFAMSWFRQSPEKRLEWVAEISSGGSYTYYPDTVTGRFTISRDNAKNTLYLEMSSLRSEDTAMYYCARGLWGYYALDYWGQGTSVTVSS
– | < 60% | scFv antibody derived from reference Antibody 4 (binding to IL-6R), fused with an Fc fragment of human IgG1 (Fc fusion, not shown: a dimerising Fc or GST) scFv: QVQLQESGPGLVRPSQTLSLTCTVSGYSITSDHAWSWVRQPPGRGLEWIGYISYSGITTYNPSLKSRVTMLRDTSKNQFSLRLSSVTAADTAVYYCARSLARTTAMDYWGQGSLVTVSSGGGGSGGRASGGGGSGGGGSDIQMTQSPSSLSASVGDRVTITCRASQDISSYLNWYQQKPGKAPKLLIYYTSRLHSGVPSRFSGSGSGTDFTFTISSLQPEDIATYYCQQGNTLPYTFGQGTKVEIK
100% | – | scFv antibody derived from reference Antibody 2 (binding to IL-6), fused with an Fc fragment of human IgG1 (Fc fusion, not shown: a dimerising Fc or GST) scFv: EIVLTQSPATLSLSPGERATLSCSASISVSYMYWYQQKPGQAPRLLIYDMSNLASGIPARFSGSGSGTDFTLTISSLEPEDFAVYYCMQWSGYPYTFGGGTKVEIKGGGGSGGGGSGGGGSEVQLVESGGGLVQPGGSLRLSCAASGFTFSPFAMSWVRQAPGKGLEWVAKISPGGSWTYYSDTVTGRFTISRDNAKNSLYLQMNSLRAEDTAVYYCARQLWGYYALDIWGQGTTVTVSS
– | 100% | scFv antibody derived from reference Antibody 1 (binding to IL-6R), fused with an Fc fragment of human IgG1 (Fc fusion, not shown: a dimerising Fc or GST) scFv: DIQMTQSPSSVSASVGDRVTITCRASQGISSWLAWYQQKPGKAPKLLIYGASSLESGVPSRFSGSGSGTDFTLTISSLQPEDFASYYCQQANSFPYTFGQGTKLEIKGGGGSGGGGSGGGGSEVQLVESGGGLVQPGRSLRLSCAASRFTFDDYAMHWVRQAPGKGLEWVSGISWNSGRIGYADSVKGRFTISRDNAENSLFLQMNGLRAEDTALYYCAKGRDSFDIWGQGTMVTVSS
